Target: FLAG-Tor (Dictyostelium discoideum, UniProt Q86C65 1-2380)
Assay: pull-down

FLAG-Tor, sequence (Q86C65 whole entry): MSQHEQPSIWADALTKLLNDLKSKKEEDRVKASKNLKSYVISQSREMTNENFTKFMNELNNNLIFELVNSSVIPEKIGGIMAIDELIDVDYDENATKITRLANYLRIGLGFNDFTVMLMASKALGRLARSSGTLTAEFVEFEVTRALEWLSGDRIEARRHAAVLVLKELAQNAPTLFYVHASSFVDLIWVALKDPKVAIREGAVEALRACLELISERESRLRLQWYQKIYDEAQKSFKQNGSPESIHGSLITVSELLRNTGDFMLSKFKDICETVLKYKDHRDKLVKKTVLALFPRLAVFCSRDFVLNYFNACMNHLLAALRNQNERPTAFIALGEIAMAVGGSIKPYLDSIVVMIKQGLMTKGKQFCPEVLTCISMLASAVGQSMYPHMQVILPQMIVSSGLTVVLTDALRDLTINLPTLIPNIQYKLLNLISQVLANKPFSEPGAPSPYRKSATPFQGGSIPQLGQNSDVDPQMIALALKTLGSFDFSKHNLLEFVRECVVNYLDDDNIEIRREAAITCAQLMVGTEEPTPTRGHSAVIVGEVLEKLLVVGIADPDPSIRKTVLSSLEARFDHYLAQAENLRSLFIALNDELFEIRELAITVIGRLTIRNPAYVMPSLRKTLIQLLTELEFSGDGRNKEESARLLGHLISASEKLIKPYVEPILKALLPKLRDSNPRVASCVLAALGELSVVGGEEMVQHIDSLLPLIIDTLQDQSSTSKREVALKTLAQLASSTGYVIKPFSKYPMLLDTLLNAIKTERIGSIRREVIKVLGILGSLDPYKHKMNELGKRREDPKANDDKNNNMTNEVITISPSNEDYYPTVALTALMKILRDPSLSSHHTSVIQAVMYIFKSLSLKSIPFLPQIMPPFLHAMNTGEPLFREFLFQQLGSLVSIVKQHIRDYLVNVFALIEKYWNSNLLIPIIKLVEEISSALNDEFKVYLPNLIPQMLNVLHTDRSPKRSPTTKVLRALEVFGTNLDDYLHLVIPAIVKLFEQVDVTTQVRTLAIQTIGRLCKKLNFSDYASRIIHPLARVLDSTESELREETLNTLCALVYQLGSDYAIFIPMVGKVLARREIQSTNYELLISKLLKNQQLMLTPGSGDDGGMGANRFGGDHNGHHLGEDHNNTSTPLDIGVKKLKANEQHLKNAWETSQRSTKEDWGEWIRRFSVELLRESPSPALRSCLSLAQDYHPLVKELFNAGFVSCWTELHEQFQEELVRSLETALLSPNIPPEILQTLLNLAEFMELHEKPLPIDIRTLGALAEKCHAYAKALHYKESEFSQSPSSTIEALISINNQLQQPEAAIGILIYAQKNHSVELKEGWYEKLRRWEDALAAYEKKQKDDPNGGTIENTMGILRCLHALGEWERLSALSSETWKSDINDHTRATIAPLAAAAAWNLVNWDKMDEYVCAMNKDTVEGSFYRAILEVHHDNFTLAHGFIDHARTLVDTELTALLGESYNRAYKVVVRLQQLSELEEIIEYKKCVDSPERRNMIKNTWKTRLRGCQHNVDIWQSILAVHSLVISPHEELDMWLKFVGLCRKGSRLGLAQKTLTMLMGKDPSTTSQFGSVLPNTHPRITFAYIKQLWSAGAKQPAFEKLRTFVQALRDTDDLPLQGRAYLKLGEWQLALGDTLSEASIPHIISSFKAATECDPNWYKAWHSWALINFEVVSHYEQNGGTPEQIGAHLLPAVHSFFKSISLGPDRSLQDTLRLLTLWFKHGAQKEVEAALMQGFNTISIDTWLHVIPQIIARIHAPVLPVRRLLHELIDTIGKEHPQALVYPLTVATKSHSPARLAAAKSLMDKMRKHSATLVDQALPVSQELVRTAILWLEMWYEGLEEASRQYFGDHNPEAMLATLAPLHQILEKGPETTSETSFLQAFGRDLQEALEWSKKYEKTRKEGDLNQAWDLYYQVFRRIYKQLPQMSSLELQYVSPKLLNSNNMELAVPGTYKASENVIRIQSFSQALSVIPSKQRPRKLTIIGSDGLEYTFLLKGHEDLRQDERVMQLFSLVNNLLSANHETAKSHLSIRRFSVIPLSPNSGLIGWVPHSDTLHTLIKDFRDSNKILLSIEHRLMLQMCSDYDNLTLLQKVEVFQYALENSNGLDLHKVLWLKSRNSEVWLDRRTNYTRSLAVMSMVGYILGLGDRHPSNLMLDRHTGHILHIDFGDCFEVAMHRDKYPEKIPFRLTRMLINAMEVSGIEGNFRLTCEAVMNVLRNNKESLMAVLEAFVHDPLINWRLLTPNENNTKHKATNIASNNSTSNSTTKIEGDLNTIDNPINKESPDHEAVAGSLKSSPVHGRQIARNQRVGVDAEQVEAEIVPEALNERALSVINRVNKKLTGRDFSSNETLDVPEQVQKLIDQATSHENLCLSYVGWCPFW

binding result: binds
B1: GFP-RacE_(T25N), GDP-bound, purified after chemoattractant stimulation (Ser192 phosphorylated) (natural protein)
chain: MSEDQGSGATRVKLVVVGDGAVGKNCLLICYAQNDFPVDYVPTVFENYTATRKRGNEDIKVHLWDTAGQEEYDRLRPLSYPGADVVLLCFSTISQSSYEAIRDKWAPEVNHYIPDVPSILVGTKIDLREQQHPDPNSGKFEPITADMGISMQKQIKAKKYLEVSAKTRQGLEEVFSAAIEIVLESRGMDKKSQDGSSSASGVPSGDKPTKGKAGKKKSGCIIL
modifications: phosphoserine at 192 (chemoattractant-induced)

— paper PMC6650273 (Nature cell biology, 2019)
